From the supplement of paper PMC6757056
± gives the standard deviation of the averaged measurements.

B1: library; a variant is named by its letters at N, in order (parent)
chain: GCUGUCACCGGUGCUUGGUACGUUAUAUUCAGCCGGUCUGAUGAGUCUNNNNNNAGACGAAACAGC

What was measured:
[1] = variants of: B1; assay: normalized RNA/DNA level without ligand (relative to sTRSVctl = 100) (log10 (% of sTRSVctl)); HEK293T overexpressing SLC46A1; higher = less ribozyme self-cleavage, higher mRNA level; details: without (6R,S)-folinic acid; ligand present: no
In short: (§1)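 Ribozyme switch library plasmids with mCherry reporters (eGFP in certain ligand experiments) went into HEK293T cells at 4 µg per 6-well well. Where ligand was used, it was applied 1 h before transfection, and total RNA was extracted with EDTA 72 h later for reverse transcription, amplification, barcoding and sequencing. RNA level is the RNA-to-DNA read ratio normalized to a spiked-in non-cleaving sequence or to the leading sequences, then scaled and log-transformed. Scaling was ×100 with log10, the leading set comprised 25 sequences, and the cutoff was ≥100 DNA reads.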

[2] = variants of: B1; assay: normalized RNA/DNA level with ligand (relative to sTRSVctl = 100) (log10 (% of sTRSVctl)); HEK293T overexpressing SLC46A1; ligand concentration (+) RNA-Seq: 6 mM; higher = less ribozyme self-cleavage, higher mRNA level; details: with (6R,S)-folinic acid; ligand present: yes
In short: as §1

Row | Variant | normalized RNA/DNA level without ligand (log10) [1] | normalized RNA/DNA level with ligand (log10) [2]
1 | GCUGUCACCGGUGCUUGGUACGUUAUAUUCAGCCGGUCUGAUGAGUCUACGGUCAGACGAAACAGC | 2.088 ± 0.0078 | 2.06 ± 0.036
2 | GCUGUCACCGGUGCUUGGUACGUUAUAUUCAGCCGGUCUGAUGAGUCUACGGUGAGACGAAACAGC | 1.924 ± 0.0096 | 2.003 ± 0.013
3 | GCUGUCACCGGUGCUUGGUACGUUAUAUUCAGCCGGUCUGAUGAGUCUCCGGUGAGACGAAACAGC | 2.04 ± 0.04 | 2.051 ± 0.0038
4 | GCUGUCACCGGUGCUUGGUACGUUAUAUUCAGCCGGUCUGAUGAGUCUGCGUCGAGACGAAACAGC | 2.042 ± 0.0035 | 2.07 ± 0.035
5 | GCUGUCACCGGUGCUUGGUACGUUAUAUUCAGCCGGUCUGAUGAGUCUGCGUCAAGACGAAACAGC | 2.06 ± 0.025 | 2.08 ± 0.031
6 | GCUGUCACCGGUGCUUGGUACGUUAUAUUCAGCCGGUCUGAUGAGUCUGCGUCUAGACGAAACAGC | 2.064 ± 0.0062 | 2.07 ± 0.034
7 | GCUGUCACCGGUGCUUGGUACGUUAUAUUCAGCCGGUCUGAUGAGUCUGCGUCCAGACGAAACAGC | 2.01 ± 0.0034 | 1.997 ± 0.0077
8 | GCUGUCACCGGUGCUUGGUACGUUAUAUUCAGCCGGUCUGAUGAGUCUACGUCCAGACGAAACAGC | 2.03 ± 0.023 | 2 ± 0.068
9 | GCUGUCACCGGUGCUUGGUACGUUAUAUUCAGCCGGUCUGAUGAGUCUACGUCUAGACGAAACAGC | 2.04 ± 0.028 | 2.025 ± 0.013
10 | GCUGUCACCGGUGCUUGGUACGUUAUAUUCAGCCGGUCUGAUGAGUCUACGUCAAGACGAAACAGC | 2.037 ± 0.0081 | 2.027 ± 0.0046
11 | GCUGUCACCGGUGCUUGGUACGUUAUAUUCAGCCGGUCUGAUGAGUCUACGUCGAGACGAAACAGC | 2 ± 0.022 | 2.06 ± 0.014
12 | GCUGUCACCGGUGCUUGGUACGUUAUAUUCAGCCGGUCUGAUGAGUCUACGUGGAGACGAAACAGC | 1.954 ± 0.0043 | 2.05 ± 0.025
13 | GCUGUCACCGGUGCUUGGUACGUUAUAUUCAGCCGGUCUGAUGAGUCUACGUGCAGACGAAACAGC | 2.026 ± 0.0053 | 2.02 ± 0.055
14 | GCUGUCACCGGUGCUUGGUACGUUAUAUUCAGCCGGUCUGAUGAGUCUUCGGUCAGACGAAACAGC | 2.09 ± 0.025 | 2.06 ± 0.051
15 | GCUGUCACCGGUGCUUGGUACGUUAUAUUCAGCCGGUCUGAUGAGUCUCCGUGGAGACGAAACAGC | 2.022 ± 0.02 | 2.06 ± 0.023
16 | GCUGUCACCGGUGCUUGGUACGUUAUAUUCAGCCGGUCUGAUGAGUCUCCGUGCAGACGAAACAGC | 2.03 ± 0.048 | 1.99 ± 0.041
17 | GCUGUCACCGGUGCUUGGUACGUUAUAUUCAGCCGGUCUGAUGAGUCUCCGUGUAGACGAAACAGC | 2.039 ± 0.0037 | 2.048 ± 0.0091
18 | GCUGUCACCGGUGCUUGGUACGUUAUAUUCAGCCGGUCUGAUGAGUCUCCGUGAAGACGAAACAGC | 2.03 ± 0.021 | 2.05 ± 0.037
19 | GCUGUCACCGGUGCUUGGUACGUUAUAUUCAGCCGGUCUGAUGAGUCUUCGUAGAGACGAAACAGC | 1.8378 ± 0.0006 | 2 ± 0.052
20 | GCUGUCACCGGUGCUUGGUACGUUAUAUUCAGCCGGUCUGAUGAGUCUUCGUAUAGACGAAACAGC | 1.97 ± 0.029 | 2 ± 0.07
